Experimental data taken from PMC2831313.

Assays:
[1] = molecular target: oxidized HapC(CCS) (treated with diamide or H2O2) (Aspergillus nidulans); assay: SDS-PAGE under non-reducing conditions
[2] = molecular target: HapC(SSC) (Aspergillus nidulans); assay: SDS-PAGE without reducing agent
[3] = molecular target: N-biotinylated HapB (Aspergillus nidulans); assay: SPR
[4] = molecular target: HapC(SCS) (Aspergillus nidulans); assay: SDS-PAGE without reducing agent
[5] = molecular target: HapC with cysteine 78 exchanged to serine (Aspergillus nidulans); assay: SDS-PAGE without reducing agent
[6] = molecular target: HapC with cysteine 74 exchanged to serine (Aspergillus nidulans); assay: SDS-PAGE without reducing agent
[7] = molecular target: HapC(CSS) (Aspergillus nidulans); assay: SDS-PAGE without reducing agent
[8] = molecular target: HapC(CCS) (Aspergillus nidulans); assay: SDS-PAGE without reducing agent
[9] = molecular target: oxidized HapC (treated with diamide or H2O2) (Aspergillus nidulans); assay: SDS-PAGE under non-reducing conditions

oxidized HapC(CCS) (treated with diamide or H2O2) (natural protein)
stoichiometry N [1]: 2

HapC(SSC) (natural protein)
stoichiometry N [2]: 2

heterodimer of HapC with cysteine 74 exchanged to serine and HapE (complex)
HapB binding affinity relative to the HapC/HapE heterodimer [3]: 50%

heterodimer of HapC with cysteine 78 exchanged to serine and HapE (complex)
HapB binding affinity relative to the HapC/HapE heterodimer [3]: 50%

HapC(SCS) (natural protein)
stoichiometry N [4]: 2

HapC with cysteine 78 exchanged to serine (natural protein)
stoichiometry N [5]: 2

HapC with cysteine 74 exchanged to serine (natural protein)
stoichiometry N [6]: 2

HapC(CSS) (natural protein)
stoichiometry N [7]: 2

heterodimer composed of the HapC(CCS) mutant and HapE (complex)
Kd [3]: 36.8 nM

HapC(CCS) (natural protein)
stoichiometry N [8]: 2

oxidized HapC (treated with diamide or H2O2) (natural protein)
stoichiometry N [9]: 2
